Test results taken from publication PMC6283471.

B1: 125I-CCL3, P10147 24-92 (ligand)
chain: SLAADTPTACCFSYTSRQIPQNFIADYFETSSQCSKPGVIFLTKRSRQVCADPSEEWVQKYVSDLELSA
modifications: ends and bridges not checked; also: 125I-labelled, site not given here

Key:
[1] = target: CCR5 on HEK-R5 cells (HEK 293T cells stably expressing CCR5) (UniProt P51681); experiment: radioligand binding
[2] = target: FLAG/SNAP-tagged wild-type (WT) CCR5, P51681; experiment: radioligand binding; details: remark: other sources report otherwise

Molecule | Kd [1] [nM] | Kd [2] [nM]
gp120 Bx08-sCD4 complex (from UniProt P01730) | 14.1 | –
B1 | – | 0.36
